Assay results published in publication PMC2921712.

Legend:
[1] = target: Oregon Green 488-labeled GMPCPP microtubules; assay: single-molecule TIRF microscopy
microtubules = assay: co-sedimentation
[2] = target: Xenopus CENP-E^1-473 tagged with TagRFP-T (CENP-E^1-473-RFP) (Xenopus laevis); assay: single-molecule TIRF microscopy with photobleaching steps

Chain of Oregon Green 488-labeled GMPCPP microtubules (P02550 whole entry, chain 1 of 2): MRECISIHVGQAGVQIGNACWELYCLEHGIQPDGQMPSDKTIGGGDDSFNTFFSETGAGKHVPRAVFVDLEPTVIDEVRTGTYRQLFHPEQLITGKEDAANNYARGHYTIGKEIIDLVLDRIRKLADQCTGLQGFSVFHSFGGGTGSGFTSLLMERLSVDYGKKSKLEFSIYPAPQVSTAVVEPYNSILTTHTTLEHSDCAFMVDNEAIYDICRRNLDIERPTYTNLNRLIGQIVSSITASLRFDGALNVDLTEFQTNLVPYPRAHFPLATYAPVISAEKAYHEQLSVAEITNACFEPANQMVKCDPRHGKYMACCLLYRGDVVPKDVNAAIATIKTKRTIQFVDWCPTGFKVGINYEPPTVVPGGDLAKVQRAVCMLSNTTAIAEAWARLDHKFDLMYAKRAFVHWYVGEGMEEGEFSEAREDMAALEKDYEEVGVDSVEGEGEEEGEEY
Chain of Oregon Green 488-labeled GMPCPP microtubules (P02554 whole entry, chain 2 of 2, further chain): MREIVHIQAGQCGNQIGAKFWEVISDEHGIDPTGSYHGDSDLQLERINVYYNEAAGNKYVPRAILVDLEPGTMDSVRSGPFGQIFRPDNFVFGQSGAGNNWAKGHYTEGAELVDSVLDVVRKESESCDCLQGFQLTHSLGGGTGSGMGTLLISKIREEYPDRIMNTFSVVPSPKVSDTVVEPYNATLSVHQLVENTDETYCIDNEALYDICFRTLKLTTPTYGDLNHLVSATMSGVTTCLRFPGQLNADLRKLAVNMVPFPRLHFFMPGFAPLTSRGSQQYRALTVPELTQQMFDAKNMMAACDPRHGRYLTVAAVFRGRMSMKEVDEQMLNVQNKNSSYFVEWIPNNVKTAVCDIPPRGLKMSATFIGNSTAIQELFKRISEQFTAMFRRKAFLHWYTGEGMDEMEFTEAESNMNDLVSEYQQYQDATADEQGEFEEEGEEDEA
Chain of microtubules (P02550 whole entry, chain 1 of 2): as the sequence (P02550 whole entry, chain 1 of 2) above
Chain of microtubules (P02554 whole entry, chain 2 of 2, further chain): as the sequence (P02554 whole entry, chain 2 of 2, further chain) above

| mean duration of binding (t) [1] | Kd (microtubules) | time bound at the microtubule end [1] | stoichiometry N [2] | Substance |
| --- | --- | --- | --- | --- |
| 12 s | – | – | – | Xenopus CENP-E^1-473-RFP phosphorylated by Aurora A (domain or fragment) |
| – | 3 µM | – | – | Xenopus CENP-E^1-473 phosphorylated by Aurora A (domain or fragment) |
| 17 s | – | 5.8 s | 2 | Xenopus CENP-E^1-473 tagged with TagRFP-T (CENP-E^1-473-RFP) (domain or fragment) |
| – | 2 µM | – | – | Xenopus CENP-E motor fragment CENP-E^1-473 (domain or fragment) |
| – | 3.4 µM | – | – | T424A Xenopus CENP-E^1-473 incubated with Aurora A (domain or fragment) |
